Primed or numbered codes have the meaning given here. No end group written: not given here. FITC′ = not defined here
Target: T1, GID4 (aa 116-300) (human, UniProt Q8IVV7 116-300)
T1 sequence: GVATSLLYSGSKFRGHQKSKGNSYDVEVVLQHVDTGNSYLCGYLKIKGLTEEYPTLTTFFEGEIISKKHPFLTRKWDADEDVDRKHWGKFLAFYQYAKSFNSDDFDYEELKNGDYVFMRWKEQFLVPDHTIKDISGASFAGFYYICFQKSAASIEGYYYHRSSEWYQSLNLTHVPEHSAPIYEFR
Test: fluorescence polarisation

## PGLWKS-{FITC′} [C-terminally FITC-labelled PGLWKS peptide]
  binding result: binds

— article doi:10.1101/2023.01.17.524225 (bioRxiv, 2023)
